Laboratory results: article doi:10.1101/2025.02.04.636439 (bioRxiv, 2025)

Target: T1, Mycobacterium tuberculosis thiosulfate-sulfurtransferase SseA (Mycobacterium tuberculosis, UniProt P9WHF7 1-297)
T1 sequence: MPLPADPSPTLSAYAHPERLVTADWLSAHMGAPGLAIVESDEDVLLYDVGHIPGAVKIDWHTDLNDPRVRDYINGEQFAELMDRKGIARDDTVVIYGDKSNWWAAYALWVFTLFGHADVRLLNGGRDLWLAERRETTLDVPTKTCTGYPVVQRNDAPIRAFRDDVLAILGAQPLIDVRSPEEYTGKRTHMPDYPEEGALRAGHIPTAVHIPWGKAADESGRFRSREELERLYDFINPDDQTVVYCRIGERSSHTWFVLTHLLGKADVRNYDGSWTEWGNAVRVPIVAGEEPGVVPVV
Assay: ITC

B1: SufEMtb (Rv3284), SufE-like protein of Mycobacterium tuberculosis (natural protein)
chain: MTAPASLPAPLAEVVSDFAEVQGQDKLRLLLEFANELPALPSHLAESAMEPVPECQSPLFLHVDASDPNRVRLHFSAPAEAPTTRGFASILAAGLDEQPAADILAVPEDFYTELGLAALISPLRLRGMSAMLARIKRRLREAD
Kd: 3.3 µM
dH: -48.5 kJ/mol
stoichiometry N: 1
